Three molecules from PMC5737872 can be followed below.

Like-named read-outs stand apart in the source and are kept apart here.

Common to all, as to assay: X-ray crystallography
For data set [1], the target named is T1, Nrd1 290-468 wt (Saccharomyces cerevisiae, UniProt P53617 290-468).
T1 sequence: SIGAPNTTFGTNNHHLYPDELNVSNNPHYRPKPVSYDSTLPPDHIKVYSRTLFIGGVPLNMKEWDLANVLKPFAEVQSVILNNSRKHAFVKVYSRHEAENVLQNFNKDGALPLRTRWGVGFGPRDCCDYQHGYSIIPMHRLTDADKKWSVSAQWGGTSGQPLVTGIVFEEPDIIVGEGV

In data set [2] the target is T1, Nrd1 290-468 wt. This is another data set of the same source.
Data set [3] has as its target T1, Nrd1 290-468 wt. The source holds these as a separate data set.

B1: UUAGUAAUCC (ssRNA)
RNA: UUAGUAAUCC
Consider B1, for which the binding result in the data set with Nrd1 290-468 wt [1] is listed as “binds”.

B2: GUAA (ssRNA)
RNA: GUAA
Consider B2, for which the binding result in the data set with Nrd1 290-468 wt [2] is given as “binds”.

B3: CGUAAA (ssRNA)
RNA: CGUAAA
B3: the binding result in the data set with Nrd1 290-468 wt [3] was “binds”.
